Measurements from patent publication WO2017153426A1 (dated 2017).

Molecular target: native TSLP (supernatant from stimulated human lung fibroblasts) (human, UniProt Q969D9 29-159, limits assumed)
Assay: cell-based or functional assay

B1: DOM30h-440-81/86 (other)
chain: DIQMTQSPSSLSASVGDRVTITCRASRPIRNWLDWYQQKPGKAPKLLIWGASHLQSGVPSRFSGSGSGTDFTLTISSLQPEDFATYYCVQIGEDPVTFGQGTKVEIK
In the case of B1, the “Geometric Mean IC50, inhibition of TSLP-induced pSTAT5 in SW756 cells” value is reported as 0.86 nM.
